Experimental findings from EP4349860A1 are described below.

Holding throughout (test): cell-based or functional assay
In experiment [1] the target is SARS-CoV-2 spike protein, Gamma (P.1) variant, on pseudovirus (SARS-CoV-2 (Gamma variant)).
Experiment [2] concerns the target SARS-CoV-2 spike protein, Omicron BA.4/BA.5 variants, on pseudovirus (SARS-CoV-2 (Omicron BA.4/BA.5 variants)).
Experiment [3] concerns the target SARS-CoV-2 spike protein, Beta (B.1.351) variant, on pseudovirus (SARS-CoV-2 (Beta variant)).
Experiment [4] addresses SARS-CoV-2 spike protein, Delta (B.1.617.2) variant, on pseudovirus (SARS-CoV-2 (Delta variant)).
The target in experiment [5] is SARS-CoV-2 spike protein, Alpha (B.1.1.7) variant, on pseudovirus (SARS-CoV-2 (Alpha variant)).
For experiment [6], the target named is SARS-CoV-2 spike protein, Omicron BA.2 variant, on pseudovirus (SARS-CoV-2 (Omicron BA.2 variant)).

In the case of S2E12 (antibody), the IC50 (µg/ml), pseudotyped virus neutralization in experiment [1] was 0.0003 µg/mL; in experiment [2], more than 1 µg/mL; in experiment [3], less than 0.0003 µg/mL; in experiment [4], less than 0.0003 µg/mL; in experiment [5], 0.0004 µg/mL; in experiment [6], 0.137 µg/mL.
With S309 (antibody), the IC50 (µg/ml), pseudotyped virus neutralization in experiment [1] worked out at 0.0083 µg/mL; in experiment [2] it was 0.142 µg/mL; in experiment [3], 0.0043 µg/mL; in experiment [4], 0.0336 µg/mL; in experiment [5], 0.0347 µg/mL; in experiment [6] it was 0.416 µg/mL.
